Assay results reported in PMC12298772.

Molecular target: PUUV SP-mEGFP-Gc∆CT (Gc devoid of the cytoplasmic tail, labelled with mEGFP) (Puumala orthohantavirus (PUUV), strain Sotkamo/V-2969/81)
Assay: Number and Brightness (N&B) fluorescence fluctuation microscopy

With “PUUV SP-mEGFP-Gc∆CT (Gc devoid of the cytoplasmic tail, labelled with mEGFP) (domain or fragment)” the average multimerization was 1.4 and the fraction of monomers (assuming a monomer-dimer equilibrium) was 75 mol%.
